For this assay, the target named is Mouse synaptosomes (BoNT/A acceptor on a mouse synaptosome preparation).

On to “Active BoNT/A (botulinum neurotoxin type A) (from UniProt P0DPI0 2-1296)”, for which the maximum percent inhibition came to 78%.

The record behind these values is patent publication US20090004680A1.
